Source: US20020127594A1 (Takeda / Millennium, published 2002)

Molecular target: p185 (erbB2), 185 kDa receptor-type tyrosine kinase of the EGFR family, in MDA-MB453 breast adenocarcinoma … (UniProt P04626 23-1255, limits assumed)
Assay: cell-based or functional assay

B1: Don-1 EGF domain-containing fusion polypeptide (EGF domain and flanking amino acids 85-154 of murine Don-1, C-terminal Flag epitope tag), secreted by … (ligand, not shown: small tags and cut ends)
chain: LHVNSVSTTLSSWSGHARKCNETAKSYCVNGGVCYYIEGINQLSCKCPNGFFGQRCLEKLPLRLYMPDPK
For B1, the “phosphorylation of the 185 kDa protein in MDA-MB453 cells (antiphosphotyrosine Western blot)” value was about 10 fold.
